Source: doi:10.1101/307710, “Assignment of the resting state of the secondary active transporter BetP by integrating spectroscopic measurements and molecular simulations” (bioRxiv, 2018)

Molecular target: the molecule itself
Experiment: PELDOR (DEER) spectroscopy; spin-labelled BetP in E. coli polar lipid proteoliposomes (lipid to protein 20:1), 200 mM Tris-HCl pH 7.5 in deuterated water, with 500 mM NaCl or with 300 mM NaCl and 5 mM betaine; Q-band, four-pulse sequence; distance distributions by Tikhonov regularisation

B1: BetP G450R5/S516R5 in the background of the C252T cys-less variant (spin-labelled glycine betaine symporter BetP of Corynebacterium glutamicum) (natural protein, UniProt P54582 1-595, looked up)
chain: MTTSDPNPKPIVEDAQPEQITATEELAGLLENPTNLEGKLADAEEEIILEGEDTQASLNWSVIVPALVIVLATVVWGIGFKDSFTNFASSALSAVVDNLGWAFILFGTVFVFFIVVIAASKFGTIRLGRIDEAPEFRTVSWISMMFAAGMGIGLMFYGTTEPLTFYRNGVPGHDEHNVGVAMSTTMFHWTLHPWAIYAIVGLAIAYSTFRVGRKQLLSSAFVPLIGEKGAEGWLGKLIDILAIIATVFGTATSLGLGALQIGAGLSAANIIEDPSDWTIVGIVSVLTLAFIFSAISGVGKGIQYLSNANMVLAALLAIFVFVVGPTVSILNLLPGSIGNYLSNFFQMAGRTAMSADGTAGEWLGSWTIFYWAWWISWSPFVGMFLARISRGRSIREFILGVLLVPAGVSTVWFSIFGGTAIVFEQNGESIWGDGAAEEQLFGLLHALPGCQIMGIIAMILLGTFFITSADSASTVMGTMSQHGQLEANKWVTAAWGVATAAIGLTLLLSGGDNALCNLQNVTIVAATPFLFVVIGLMFALVKDLSNDVIYLEYREQQRFNARLARERRVHNEHRKRELAAKRRRERKASGAGKRR
modifications: R5 spin label ((1-oxyl-2,2,5,5-tetramethylpyrrolidin-3-yl)methyl methanethiosulfonate) on the cysteines introduced at positions 450 and 516
notes: Glycine betaine symporter BetP (betaine permease), Corynebacterium glutamicum; expressed from pASK-IBA5betP; cys-less C252T background with cysteines introduced at G450 and S516; also called periplasmic spin label pair; betaine permease
B1: binds.
